Tests used:
[1] = target: T1, murine COX-2 (mCOX-2) enzyme (murine, UniProt Q05769 18-604); assay: cell-based or functional assay
T1 sequence (looked up): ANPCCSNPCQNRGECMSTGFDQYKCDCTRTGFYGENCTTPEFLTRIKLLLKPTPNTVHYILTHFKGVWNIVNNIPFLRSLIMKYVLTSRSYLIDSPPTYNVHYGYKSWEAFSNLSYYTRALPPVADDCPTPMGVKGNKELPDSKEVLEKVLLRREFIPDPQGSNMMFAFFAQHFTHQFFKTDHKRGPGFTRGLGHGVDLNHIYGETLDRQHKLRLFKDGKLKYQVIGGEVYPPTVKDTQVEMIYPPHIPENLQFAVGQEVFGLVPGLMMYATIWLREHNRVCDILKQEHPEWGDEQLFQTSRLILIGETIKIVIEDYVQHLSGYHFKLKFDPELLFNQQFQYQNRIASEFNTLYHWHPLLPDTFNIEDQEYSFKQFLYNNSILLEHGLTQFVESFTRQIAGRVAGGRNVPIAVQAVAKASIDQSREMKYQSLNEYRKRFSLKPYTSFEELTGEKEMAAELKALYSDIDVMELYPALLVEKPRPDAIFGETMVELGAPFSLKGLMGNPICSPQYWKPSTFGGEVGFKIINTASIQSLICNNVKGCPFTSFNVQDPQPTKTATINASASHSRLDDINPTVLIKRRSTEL

[2] = target: T1, murine COX-2 (mCOX-2) enzyme; assay: microscale thermophoresis (MST), apo mCOX-2; apo mCOX-2 as target
Procedure: The dissociation constant of A7 and F9 nanobodies while bound to apo mCOX-2 was evaluated by a microscale thermophoresis (MST) assay (Bartoschik, T, et al. Sci Rep 2018 8:4977). […] Further, the COX-2 inhibitory activity of A7 and F9 nanobodies was evaluated in the production of prostaglandin E2 (PGE2) and prostaglandin D2 (PGD2) using arachidonic acid (AA) as a substrate. In this assay, purified mouse COX-2 expressed in baculovirus-infected Sf9 cells was used. Purified COX-2 was incubated with varying concentrations of test nanobodies followed by the addition of hematin and AA, respectively. The PGE2 and PGD2 products in the reaction was quantified by a tandem liquid chromatography mass spectroscopy (LC-MS/MS) analysis.

B1: A7 nanobody (VHH)
VHH: QVQLQESGGGLVQPGGSLKLSCAASGSIFSINVMGWYRQAPGKQRELVATITSGGTTNYADSVKGRFTISRDNAKDTLYLQMNSLKPEDTAVYYCNAKDLGGSSWFSEFDYWGQGTQVTVGP
notes: Alpaca-derived VHH expressed in E. coli and purified by SEC; The stated molecular weight is 15.24 kDa; also called native A7 nanobody clone
- IC50, inhibition of PGE2 and PGD2 production from arachidonic acid by purified mouse COX-2 (LC-MS/MS) [1]: 6.8 nM
- Kd [2]: 2.4 nM
